What was measured:
[1] = biological target: T1, FLAG-tagged hAng-2 (human, UniProt O15123 19-496); experiment: Ang2:Tie2 competition ELISA; hTie2-Fc coated, 400 ng/ml FLAG-tagged hAng-2, anti-FLAG-HRP detection
T1 sequence: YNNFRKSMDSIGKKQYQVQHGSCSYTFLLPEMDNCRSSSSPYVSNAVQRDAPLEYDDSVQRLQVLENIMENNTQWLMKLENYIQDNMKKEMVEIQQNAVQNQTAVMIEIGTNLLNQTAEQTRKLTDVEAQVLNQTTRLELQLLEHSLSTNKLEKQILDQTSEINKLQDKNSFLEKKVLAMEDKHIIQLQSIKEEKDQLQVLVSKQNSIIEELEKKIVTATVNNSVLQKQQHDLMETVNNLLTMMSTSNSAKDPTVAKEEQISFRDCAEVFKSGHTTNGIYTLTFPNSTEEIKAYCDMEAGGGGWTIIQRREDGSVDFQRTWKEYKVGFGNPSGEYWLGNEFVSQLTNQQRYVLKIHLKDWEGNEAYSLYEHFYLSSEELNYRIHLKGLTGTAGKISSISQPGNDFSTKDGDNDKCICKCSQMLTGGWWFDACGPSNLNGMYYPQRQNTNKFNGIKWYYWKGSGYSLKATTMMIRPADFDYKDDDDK
Protocol: More specifically, MaxiSorp™ flat-bottom plate (Nunc) of 96-well was coated with hTie2-Fc (R&D Systems) which is a protein bound with 4 μg/ml of Fc of human IgG1. After coating, the plate was washed five times with 0.05% (v/v) Tween-20-containing PBS (phosphate buffer saline) and then blocked with 1% (v/v) BSA (bovine serum albumin; Sigma)-containing PBS at a room temperature for 2 hour.
For Ang2:Tie2 competition ELISA, each anti-Ang2 antibody obtained in Example 2 was placed at various concentrations of 400 nM-0.001 nM into each well coated with the hTie-2/Fc fusion protein along with 1% (v/v) BSA and 400 ng/ml of a FLAG-tagged hAng-2 and then, the plate was allowed to react at a room temperature for 2 hours and washed five times with PBST. After that, a HRP-conjugated anti-FLAG antibody (Sigma) diluted in 1% (v/v) BSA-containing PBS at a ratio of 1:5,000 (v/v) was added in an amount of […] to each well to react at a room temperature for 1 hour and then, the plate was washed five times with PBST. Lastly, 100 μl of TMB substrate (Cell Signaling) was added to each well of the plate to induce color development for 3 min. and then, the reaction was ceased by the addition of 100 μl of Stop solution (Cell Signaling) and OD450 values were measured on a plate reader (Molecular Devices).

[2] = biological target: T2, hAng1 (human, UniProt Q15389 20-498, limits assumed); experiment: SPR, BIAcore T100
T2 construct: Tested by the same SPR set-up as hAng2; the construct is not described; also called human Ang1
T2 sequence (looked up): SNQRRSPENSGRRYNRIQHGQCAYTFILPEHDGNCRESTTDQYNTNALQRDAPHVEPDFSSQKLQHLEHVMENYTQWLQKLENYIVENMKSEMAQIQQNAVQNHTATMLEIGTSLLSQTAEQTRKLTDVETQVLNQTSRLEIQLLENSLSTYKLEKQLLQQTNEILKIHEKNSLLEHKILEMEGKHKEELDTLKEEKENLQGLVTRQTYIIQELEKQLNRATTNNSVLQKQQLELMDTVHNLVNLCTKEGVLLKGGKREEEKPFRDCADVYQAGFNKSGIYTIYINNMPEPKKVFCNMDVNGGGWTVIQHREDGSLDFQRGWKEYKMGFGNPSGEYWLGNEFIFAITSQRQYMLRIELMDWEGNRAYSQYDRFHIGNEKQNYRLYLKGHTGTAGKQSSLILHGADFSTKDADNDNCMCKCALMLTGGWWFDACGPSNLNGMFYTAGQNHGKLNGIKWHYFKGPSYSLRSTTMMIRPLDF

[3] = biological target: T3, mouse Ang2 (Accession # NP-031452) (R&D Systems) (mouse, UniProt O35608 19-496); experiment: ELISA on coated mouse Ang2; 50% binding concentration, which the filing calls Kd
T3 construct: Bought protein coated on the ELISA plate; also called mAng2
T3 sequence (looked up): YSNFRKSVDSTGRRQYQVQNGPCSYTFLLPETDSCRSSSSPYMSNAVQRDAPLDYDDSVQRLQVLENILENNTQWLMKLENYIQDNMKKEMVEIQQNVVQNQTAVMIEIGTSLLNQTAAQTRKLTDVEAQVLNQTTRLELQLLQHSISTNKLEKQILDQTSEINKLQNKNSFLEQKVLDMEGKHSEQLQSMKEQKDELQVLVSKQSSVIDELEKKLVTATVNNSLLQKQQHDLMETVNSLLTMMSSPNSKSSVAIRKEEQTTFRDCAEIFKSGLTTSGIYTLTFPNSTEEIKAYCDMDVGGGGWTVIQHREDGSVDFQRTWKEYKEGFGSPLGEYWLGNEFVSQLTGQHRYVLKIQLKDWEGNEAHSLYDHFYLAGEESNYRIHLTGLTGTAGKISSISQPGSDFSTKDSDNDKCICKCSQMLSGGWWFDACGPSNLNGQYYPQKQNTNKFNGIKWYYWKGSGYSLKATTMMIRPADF
Protocol: An ELISA was conducted to measure the binding affinity of the antibodies prepared in Example 2 to mouse Ang2(mAng2). MaxiSorp™ flat-bottom plate (Nunc) of 96-well was coated with 5-20 μg/ml of mouse Ang2 (Mouse Ang2; Accession # NP_{—}031452) (R&D Systems). Thereafter, the plate was washed five times with 0.05% (v/v) Tween-20-containing PBS (PBST) and then blocked with 1% (v/v) BSA (bovine serum albumin; Sigma)-containing PBS at a room temperature for 2 hour. Each of the anti-Ang2 antibodies was added to each well of the plate at various concentrations, and the plate was allowed to react at a room temperature for 2 hours.
Thereafter, the plate was washed five times with PBST. Then, a HRP-conjugated anti-mouse IgG antibody (Santacruz) diluted in 1% (v/v) BSA-containing PBS at a ratio of 1:1,000 (v/v) was added in an amount of 50 μl to each well to react at a room temperature for 1 hour and then, the plate was washed five times with PBST. Lastly, 100 μl of TMB substrate (Cell Signaling) was added to each well of the plate to induce color development for 3 min. and then, the reaction was ceased by the addition of 100 μl of Stop solution (Cell Signaling) and OD450 values were measured on a plate reader (Molecular Devices).
From the obtained results, 50% binding concentration (Kd) of the anti-Ang2 antibody to Ang2 protein is obtained, thereby measuring the binding intensity of each of the anti-Ang2 antibodies to Ang2.

[4] = biological target: T4, recombinant hAng-2 (C-His, R&D Systems) (human, UniProt O15123 19-496); experiment: SPR, BIAcore T100; hAng-2 C-His captured on anti-His chip, antibody flowed
T4 construct: Bought protein; Captured on an anti-His antibody chip for SPR; also called human Ang2; not shown: C-terminal His tag
T4 sequence: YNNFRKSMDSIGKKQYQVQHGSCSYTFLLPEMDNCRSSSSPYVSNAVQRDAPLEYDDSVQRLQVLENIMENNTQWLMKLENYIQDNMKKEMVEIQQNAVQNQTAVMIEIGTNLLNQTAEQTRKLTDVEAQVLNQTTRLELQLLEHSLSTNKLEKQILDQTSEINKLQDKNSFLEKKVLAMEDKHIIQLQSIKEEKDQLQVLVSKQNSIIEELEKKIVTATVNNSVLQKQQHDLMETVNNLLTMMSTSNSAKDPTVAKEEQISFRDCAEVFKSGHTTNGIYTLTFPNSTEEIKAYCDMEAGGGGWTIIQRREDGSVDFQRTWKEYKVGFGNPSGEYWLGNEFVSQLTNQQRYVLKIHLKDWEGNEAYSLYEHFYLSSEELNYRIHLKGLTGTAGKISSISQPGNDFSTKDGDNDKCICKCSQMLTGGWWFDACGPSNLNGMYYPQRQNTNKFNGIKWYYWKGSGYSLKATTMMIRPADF
Protocol: To more exactly measure the binding affinity of the anti-Ang2 antibodies to antigen Ang2, the binding affinity of the above antibodies to the antigen was measured by an surface plasmon resonance (SPR) method using BIAcore T100 (GE Healthcare). The SPR method uses refractive index change of light which passes a sensor chip according to the state of materials coated onto the sensor chip, and if an antigen or an antibody is flowed onto a chip coated with the antigen or antibody, it causes changes in refractive index due to their binding and Kd values are thus calculated from the measured values.
First, anti-His antibody was immobilized on a CM5 sensor chip (GE healthcare) up to 8,000 RU levels using a pH 5.0 acetate solution and an amine coupling kit (GE Healthcare). 6 μg/ml of a recombinant hAng-2 (C-His, R&D Systems) protein was flowed onto the chip to be captured at 100 to 200 RU levels.

IC50 [1]: 2.89 nM
Kd [3]: 2.1 nM
Kd [4]: 2.3 nM
B1: SAIT-ANG2-AB-m1B6 (antibody, V domains shown)
VH: QIQLVQSGPELKKPGETVKISCKASGYTFTNYGMNWVKQAPGKGLKWMGWINTYTGEPTYADDFKGRFAFSLETSASTAYLQINNLKNEDTATYFCARDHDGYLMDYWGQGTSVTVSS
VL: DIQMTQTTSSLSASLGDRVTISCSTSQGISNYLNWYQQKPDGTVKLLIFYTSSLHSGVPSRFSGSGSGTDYSLTISNLEPEDIATYYCQQYSKLPYTFGGGTKLEIK
notes: also called hybridoma KCLRF-BP-00307
binding result [2]: no binding (tested: 100 nM (highest antibody concentration))

From patent publication US20150210761A1 (SAMSUNG ELECTRONICS, published 2015)
